Laboratory results as given in article PMC4747798.

Molecular target: SH2 domain (143-249) of CSRC (UniProt P12931)
Test: ITC

A stoichiometry N of 1 was found for “human calmodulin (from UniProt P0DP23 1-149) (natural protein)” in this work.
